These results are taken from paper PMC8733265, “Microscale thermophoresis suggests a new model of regulation of cardiac myosin function via interaction with cardiac myosin-binding protein C” (The Journal of Biological Chemistry, 2021).

What all share (test): MST; Monolith NT.115; 100 nmol/l Alexa647-labelled protein fixed, partner titrated; 20 mmol/l Mops pH 7, 1 mmol/l MgCl2, 50 mmol/l KCl, 1 mmol/l DTT, 0.05% Tween-20
Holding throughout (settings): both partners purified

The target of one assay is T1, domain C0 of cMyBP-C (UniProt Q14896 1-101).
T1 construct: source: E. coli BL21(DE3)-RIPL, purified (HisTrapFF, TEV, ion exchange); not shown: His tag, N-terminal, cleaved
T1 sequence (Q14896 1-101): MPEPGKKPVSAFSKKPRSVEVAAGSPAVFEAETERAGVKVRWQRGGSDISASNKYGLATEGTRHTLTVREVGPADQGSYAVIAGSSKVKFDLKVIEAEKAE

The target of another assay is T2, domain C1 of cMyBP-C (UniProt Q14896 151-258).
T2 construct: source: E. coli BL21(DE3)-RIPL, purified (HisTrapFF, TEV, ion exchange); not shown: His tag, N-terminal, cleaved
T2 sequence (Q14896 151-258): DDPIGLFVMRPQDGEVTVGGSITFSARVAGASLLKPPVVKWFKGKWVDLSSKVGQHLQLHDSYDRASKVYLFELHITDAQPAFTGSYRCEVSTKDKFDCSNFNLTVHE

Another assay concerns the target T3, domain C2 of cMyBP-C (UniProt Q14896 362-452).
T3 construct: source: E. coli BL21(DE3)-RIPL, purified (HisTrapFF, TEV, ion exchange); not shown: His tag, N-terminal, cleaved

Assay [1] deals with T4, C0C2, cMyBP-C spanning domains C0 to C2 (UniProt Q14896 1-452).
T4 construct: also called N-terminal domains (NTD) of cMyBP-C; C0-P/A-C1-m-C2; source: E. coli BL21(DE3)-RIPL, purified (HisTrapFF, TEV, ion exchange); not shown: His tag, N-terminal, cleaved
T4 sequence (Q14896 1-452): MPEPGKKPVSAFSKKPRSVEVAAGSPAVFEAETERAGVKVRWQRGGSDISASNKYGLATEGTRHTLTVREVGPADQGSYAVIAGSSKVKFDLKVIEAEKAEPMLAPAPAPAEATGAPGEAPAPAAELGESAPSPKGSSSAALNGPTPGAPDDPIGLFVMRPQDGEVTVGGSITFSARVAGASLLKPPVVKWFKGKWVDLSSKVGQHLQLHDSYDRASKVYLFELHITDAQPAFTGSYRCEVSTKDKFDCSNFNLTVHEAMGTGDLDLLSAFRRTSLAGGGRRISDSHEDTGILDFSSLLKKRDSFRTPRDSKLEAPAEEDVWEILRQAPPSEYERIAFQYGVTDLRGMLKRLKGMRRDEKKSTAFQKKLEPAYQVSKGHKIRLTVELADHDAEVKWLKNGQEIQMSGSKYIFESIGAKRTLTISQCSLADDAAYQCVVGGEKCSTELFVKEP

A further assay deals with T5, C0C1 fragment of cMyBP-C (UniProt Q14896 1-258).
T5 construct: also called C0-P/A-C1; source: E. coli BL21(DE3)-RIPL, purified (HisTrapFF, TEV, ion exchange); not shown: His tag, N-terminal, cleaved
T5 sequence (Q14896 1-258): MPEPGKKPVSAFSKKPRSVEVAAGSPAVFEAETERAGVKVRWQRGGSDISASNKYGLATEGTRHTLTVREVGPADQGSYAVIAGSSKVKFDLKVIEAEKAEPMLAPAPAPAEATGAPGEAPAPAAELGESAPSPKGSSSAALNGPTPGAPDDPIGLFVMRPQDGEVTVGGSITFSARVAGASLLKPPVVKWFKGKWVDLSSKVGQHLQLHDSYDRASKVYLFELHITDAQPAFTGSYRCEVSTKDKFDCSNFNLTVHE

The next assay has as its target T6, C2C4 segment of cMyBP-C (UniProt Q14896 362-633).
T6 construct: also called C2–C3–C4; C2C4 module; source: E. coli BL21(DE3)-RIPL, purified (HisTrapFF, TEV, ion exchange); not shown: His tag, N-terminal, cleaved

Another assay deals with T7, C5C7 segment of cMyBP-C (UniProt Q14896 645-967).
T7 construct: also called C5–C6–C7; wildtype C5C7; source: E. coli BL21(DE3)-RIPL, purified (HisTrapFF, TEV, ion exchange); not shown: His tag, N-terminal, cleaved
T7 sequence (looked up): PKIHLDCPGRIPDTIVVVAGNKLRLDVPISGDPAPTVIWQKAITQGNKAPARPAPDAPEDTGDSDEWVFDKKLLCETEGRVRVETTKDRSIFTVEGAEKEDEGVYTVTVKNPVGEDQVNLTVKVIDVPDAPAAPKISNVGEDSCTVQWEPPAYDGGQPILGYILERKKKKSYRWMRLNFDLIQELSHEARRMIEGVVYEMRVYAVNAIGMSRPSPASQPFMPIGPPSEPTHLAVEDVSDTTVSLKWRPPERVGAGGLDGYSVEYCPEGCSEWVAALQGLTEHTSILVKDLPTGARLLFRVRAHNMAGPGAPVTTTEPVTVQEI

The target of assay [2] is T8, C0C2-3P, tris-phosphorylated C0C2 (UniProt Q14896 1-452, tris-phosphorylated by PKA (m-motif; sites not given)).
T8 construct: not shown: His tag, N-terminal, cleaved
T8 sequence (Q14896 1-452): as the sequence (Q14896 1-452) above

T3 sequence (Q14896 362-452): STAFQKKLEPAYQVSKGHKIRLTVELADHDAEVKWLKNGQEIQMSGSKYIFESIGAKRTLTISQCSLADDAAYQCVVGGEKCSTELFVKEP
T6 sequence (Q14896 362-633): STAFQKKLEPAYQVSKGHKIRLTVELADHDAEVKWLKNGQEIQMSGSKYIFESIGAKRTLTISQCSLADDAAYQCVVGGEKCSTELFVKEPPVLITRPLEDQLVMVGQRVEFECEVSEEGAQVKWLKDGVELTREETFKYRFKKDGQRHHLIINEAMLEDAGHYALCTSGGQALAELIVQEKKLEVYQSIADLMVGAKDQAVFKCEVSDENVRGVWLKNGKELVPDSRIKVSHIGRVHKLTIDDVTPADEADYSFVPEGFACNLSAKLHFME

B1: miniHMM, recombinant fragment of human cardiac myosin containing the myosin S2Δ tail domain bound to two RLCs (complex)
chain 1: RDSLLVIQWNIRAFMGVKNWPWMKLYFKIKPLLKSAEREKEMASMKEEFTRLKEALEKSEARRKELEEKMVSLLQEKNDLQLQVQAEQDNLADAEERCDQLIKNKIQLEAKVKEMNERLEDEEEMNAELTAKKRKLEDECSELKRDIDDLELTLAK
chain 2: APKKAKKRAGGANSNVFSMFEQTQIQEFKEAFTIMDQNRDGFIDKNDLRDTFAALGRVNVKNEEIDEMIKEAPGPINFTVFLTMFGEKLKGADPEETILNAFKVFDPEGKGVLKADYVREMLTTQAERFSKEEVDQMFAAFPPDVTGNLDYKNLVHIITHGEEKD
modifications: Limits not printed. C-terminus from S2Δ as the first 126 residues of S2 (838-963 by convention). N-terminus taken at the start of the RLC-binding heavy-chain helix (about 808). RLC initiator Met …
By Kd is commonly meant the concentration at which binding is half-saturated. A lower Kd goes with tighter binding. As to B1, the dissociation constant Kd with domain C0 of cMyBP-C was 335 µM; with domain C1 of cMyBP-C, 17 µM; with domain C2 of cMyBP-C, 502 µM; in assay [1], 3.4 µM; with C0C1 fragment of cMyBP-C, 10.3 µM; with C2C4 segment of cMyBP-C it was 4.7 µM. Also, the Kd in the assay with C5C7 segment of cMyBP-C was 3.2 µM.

B2: phospho-miniHMM (miniHMM phosphorylated in vitro by cMLCK) (complex)
chain 1: RDSLLVIQWNIRAFMGVKNWPWMKLYFKIKPLLKSAEREKEMASMKEEFTRLKEALEKSEARRKELEEKMVSLLQEKNDLQLQVQAEQDNLADAEERCDQLIKNKIQLEAKVKEMNERLEDEEEMNAELTAKKRKLEDECSELKRDIDDLELTLAK
chain 2: APKKAKKRAGGANSNVFSMFEQTQIQEFKEAFTIMDQNRDGFIDKNDLRDTFAALGRVNVKNEEIDEMIKEAPGPINFTVFLTMFGEKLKGADPEETILNAFKVFDPEGKGVLKADYVREMLTTQAERFSKEEVDQMFAAFPPDVTGNLDYKNLVHIITHGEEKD
modifications: phosphorylated by cMLCK to about 1 mol Pi/mol RLC (site not given)
Take B2: the Kd came to 2.7 µM in assay [1] and 5 µM in assay [2].
